1 molecule from article PMC3517414, “Complex Interplay between the Lipin 1 and the Hepatocyte Nuclear Factor 4 α (HNF4α) Pathways to Regulate Liver Lipid Metabolism” (PLoS ONE, 2012) can be followed below.

The test has as its target T1, hepatocyte nuclear factor 4α (HNF4α) (human (endogenous in HepG2), UniProt P41235 1-474).
T1 sequence (looked up): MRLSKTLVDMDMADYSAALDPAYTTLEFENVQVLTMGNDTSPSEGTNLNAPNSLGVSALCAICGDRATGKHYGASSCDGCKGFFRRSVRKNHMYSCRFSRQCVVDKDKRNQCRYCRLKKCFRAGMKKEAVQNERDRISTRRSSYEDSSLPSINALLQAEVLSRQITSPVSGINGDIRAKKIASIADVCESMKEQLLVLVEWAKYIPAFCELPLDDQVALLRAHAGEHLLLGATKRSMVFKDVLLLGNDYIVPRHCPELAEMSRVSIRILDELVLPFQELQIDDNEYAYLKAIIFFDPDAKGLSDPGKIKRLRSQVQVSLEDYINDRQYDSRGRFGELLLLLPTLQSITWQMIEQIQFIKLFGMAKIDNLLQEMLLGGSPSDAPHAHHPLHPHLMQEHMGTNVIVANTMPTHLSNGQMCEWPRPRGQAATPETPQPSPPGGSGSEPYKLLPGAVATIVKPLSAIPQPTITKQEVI
In words: cell-based or functional assay.

Where only a bound is given, the exact number is not on record here.

B1: lipin 1β (924 amino acid form of mouse lipin 1), HA-tagged (natural protein, UniProt Q91ZP3 1-924, looked up)
chain: MNYVGQLAGQVFVTVKELYKGLNPATLSGCIDIIVIRQPNGSLQCSPFHVRFGKMGVLRSREKVVDIEINGESVDLHMKLGDNGEAFFVQETDNDQEIIPMYLATSPILSEGAARMESQLKRNSVDRIRCLDPTTAAQGLPPSDTPSTGSLGKKRRKRRRKAQLDNLKRDDNVNSSEDEDMFPIEMSSDEDTAPMDGSRTLPNDVPPFQDDIPKENFPSISTHPQSASYPSSDREWSPSPSSLVDCQRTPPHLAEGVLSSSCPLQSCHFHASESPSGSRPSTPKSDSELVSKSADRLTPKNNLEMLWLWGELPQAAKSSSPHKMKESSPLGSRKTPDKMNFQAIHSESSDTFSDQSPTMARGLLIHQSKAQTEMQFVNEEDLESLGAAAPPSPVAEELKAPYPNTAQSSSKTDSPSRKKDKRSRHLGADGVYLDDLTDMDPEVAALYFPKNGDPGGLPKQASDNGARSANQSPQSVGGSGIDSGVESTSDSLRDLPSIAISLCGGLSDHREITKDAFLEQAVSYQQFADNPAIIDDPNLVVKVGNKYYNWTTAAPLLLAMQAFQKPLPKATVESIMRDKMPKKGGRWWFSWRGRNATIKEESKPEQCLTGKGHNTGEQPAQLGLATRIKHESSSSDEEHAAAKPSGSSHLSLLSNVSYKKTLRLTSEQLKSLKLKNGPNDVVFSVTTQYQGTCRCEGTIYLWNWDDKVIISDIDGTITRSDTLGHILPTLGKDWTHQGIAKLYHKVSQNGYKFLYCSARAIGMADMTRGYLHWVNERGTVLPQGPLLLSPSSLFSALHREVIEKKPEKFKVQCLTDIKNLFFPNTEPFYAAFGNRPADVYSYKQVGVSLNRIFTVNPKGELVQEHAKTNISSYVRLCEVVDHVFPLLKRSHSCDFPCSDTFSNFTFWREPLPPFENQDMHSASA
Turning to B1, the “activity of a Gal4-HNF4α fusion on the UAS-TKLuc luciferase reporter in HepG2 cells with lipin 1 overexpression” value was more than 3 fold.
